Test results from patent US20210330740A1 (RUN X, published 2021).

Molecular target: T1, BRD2 (Bromodomain-containing protein 2) (UniProt P25440 1-801, limits assumed)
T1 construct: also called Brd2 protein
Test: co-immunoprecipitation and immunoblotting, time course
Method: Particularly, the antibody targeting RUNX3 (5G4) (Cat #ab40278) was obtained from Abcam (Cambridge, UK), and the antibody was diluted 1:3000. BRD2 (M01; 1:1000; Cat #H00006046-M01, Abnova, Taipei City, Taiwan) was used for immunoblotting and immunoprecipitation. Transient transfection was performed in all cell lines using lipofectamine plus reagent and lipofectamine (Invitrogen). Cell lysates were incubated with an appropriate monoclonal or polyclonal antibody (2 μg of antibody/500 μg of lysate sample) at 4° C. for 3 hours, followed by incubation with protein G-Sepharose beads (Amersham Pharmacia Biotech, Piscataway, N.J., USA). For the detection of endogenous proteins at 4° C. for 1 hour, the lysate was incubated with an appropriate monoclonal or polyclonal antibody (1:1000˜1:3000) at 4° C. for 6 to 12 hours, and then protein G-Sepharose beads (Amersham Pharmacia Biotech) were […] at 4° C. for 3 hours. The immune precipitate was digested on SDS-polyacrylamide gel electrophoresis (SDS-PAGE) gel and transferred to a PVDF membrane (Millipore, Billerica, Mass., USA). The membrane was blocked, immunoblotted with an appropriate antibody, treated with ECL solution (Amersham Pharmacia Biotech), and visualized in Amersham™ Imager 600 (GE Healthcare, Chicago, Ill., USA).

T1 sequence (P25440 whole entry): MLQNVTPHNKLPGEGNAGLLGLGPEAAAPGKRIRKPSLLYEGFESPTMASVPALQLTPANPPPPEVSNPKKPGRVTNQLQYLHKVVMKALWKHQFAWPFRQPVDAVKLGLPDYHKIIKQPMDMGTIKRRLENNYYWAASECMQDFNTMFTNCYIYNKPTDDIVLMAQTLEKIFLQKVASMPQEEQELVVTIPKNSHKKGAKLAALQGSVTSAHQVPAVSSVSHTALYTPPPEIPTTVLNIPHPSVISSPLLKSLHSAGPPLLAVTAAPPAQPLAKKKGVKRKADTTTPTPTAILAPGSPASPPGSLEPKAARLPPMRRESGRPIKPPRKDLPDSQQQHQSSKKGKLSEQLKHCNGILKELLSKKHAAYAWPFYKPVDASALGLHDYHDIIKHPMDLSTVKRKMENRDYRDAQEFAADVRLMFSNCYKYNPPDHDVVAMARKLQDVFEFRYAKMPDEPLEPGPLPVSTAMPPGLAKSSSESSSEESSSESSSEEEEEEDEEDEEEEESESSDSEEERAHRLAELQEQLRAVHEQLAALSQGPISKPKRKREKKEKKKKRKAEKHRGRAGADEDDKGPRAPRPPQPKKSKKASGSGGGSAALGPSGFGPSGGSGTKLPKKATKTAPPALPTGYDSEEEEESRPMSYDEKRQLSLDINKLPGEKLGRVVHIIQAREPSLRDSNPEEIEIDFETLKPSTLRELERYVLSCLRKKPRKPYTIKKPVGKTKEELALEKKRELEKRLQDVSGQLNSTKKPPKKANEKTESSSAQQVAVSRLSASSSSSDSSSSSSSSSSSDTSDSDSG

B1: modified protein in which the 356th serine of Runx3 is substituted with alanine (other, UniProt Q13761 1-415, looked up)
chain: MRIPVDPSTSRRFTPPSPAFPCGGGGGKMGENSGALSAQAAVGPGGRARPEVRSMVDVLADHAGELVRTDSPNFLCSVLPSHWRCNKTLPVAFKVVALGDVPDGTVVTVMAGNDENYSAELRNASAVMKNQVARFNDLRFVGRSGRGKSFTLTITVFTNPTQVATYHRAIKVTVDGPREPRRHRQKLEDQTKPFPDRFGDLERLRMRVTPSTPSPRGSLSTTSHFSSQPQTPIQGTSELNPFSDPRQFDRSFPTLPTLTESRFPDPRMHYPGAMSAAFPYSATPSGTSISSLSVAGMPATSRFHHTYLPPPYPGAPQNQSGPFQANPSPYHLYYGTSSGSYQFSMVAGSSSGGDRAPTRMLASCTSSAASVAAGNLMNPSLGGQSDGVEADGSHSNSPTALSTPGRMDEAVWRPY
notes: also called Runx3 S356A; RUNX3 S356A
complex maintenance activity, fold against wild-type Runx3: ≥ 10 times
